Measurements from patent EP4717714A1.

Biological target: PD-1 antigen with murine Fc tags (human) (UniProt Q15116)
Assay: SPR (Biacore T200), PD-1-mFc captured by anti-mouse Fc antibody, 100 nM antibody injected

PD-1 antigen with murine Fc tags (human), sequence (Q15116 25-167 limits assumed): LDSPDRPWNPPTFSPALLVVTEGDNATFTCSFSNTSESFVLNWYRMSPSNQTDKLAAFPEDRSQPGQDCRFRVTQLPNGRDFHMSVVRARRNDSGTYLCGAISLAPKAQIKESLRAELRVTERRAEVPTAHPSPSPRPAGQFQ

B1: JS001 (recombinant humanized anti-PD-1 monoclonal antibody reference article, Toripalimab) (antibody, human IgG4 S228P, kappa, V domains shown)
VH: QGQLVQSGAEVKKPGASVKVSCKASGYTFTDYEMHWVRQAPIHGLEWIGVIESETGGTAYNQKFKGRVTITADKSTSTAYMELSSLRSEDTAVYYCAREGITTVATTYYWYFDVWGQGTTVTVSS
VL: DVVMTQSPLSLPVTLGQPASISCRSSQSIVHSNGNTYLEWYLQKPGQSPQLLIYKVSNRFSGVPDRFSGSGSGTDFTLKISRVEAEDVGVYYCFQGSHVPLTFGQGTKLEIKR
Q: B1 was tested. Which Bound antibody signal (RU) did it give?
A: Its Bound antibody signal (RU) is 128 RU.
